The chains are these.
B1: HDV Ribozyme (parent)
chain: GGCCGGCAUGGUCCCAGCCUCCUCGCUGGCGCCGGCUGGGCAACAUUCCGAGGGGACCGUCCCCUCGGUAAUGGCGAAUGGGACCCA

Variants of B1 are the subject of this data set. Kind of data set: self-cleavage, relative activity (ratio to wild type); higher = more cleavage; co-transcriptional.
For the variant G10U A83C, the self-cleavage is 0.181.
The value for G38C U79C was 0.0264; that for A42U U69G was 0.519.
In the case of C7U A70C, the self-cleavage is 0.923.
Then C4G G53C, with 0.213; and G1U G82C, with 0.47.
G11A C85G: the self-cleavage was 0.678.
For G35U C58G, the self-cleavage is 0.323.
Then G2U A87G, with 0.0468; and C21U C41A, with 0.339.
Regarding C61A G81C, the self-cleavage turned out to be 0.287.
In the case of G2C C15A, the self-cleavage was found to be 0.0297.
Turning to C49U G74A, the self-cleavage is 0.443.
As for U72C G74C, the self-cleavage was 0.26.
C22U C30U: the self-cleavage was 0.194.
Take C30A G50A: the self-cleavage turned out to be 0.641.
For the variant G59C G81A, the self-cleavage came to 0.69.
Take A8G C13G: the self-cleavage worked out at 0.0923.
The value for G31A A87U was 0.442; that for U46A G82C was 0.
For the variant G39C G53U, the self-cleavage came to 0.133.
G1A U65A: the self-cleavage was found to be 0.0692.
The value for G38U A77C was 0.0554; that for G17U U79A was 0.755; that for A71U A77G was 0.508.
For the variant A71U A77U, the self-cleavage amounted to 0.415.
On to G10A G34U, for which the self-cleavage amounted to 0.257.
Then C33G G53C, with 0.156; and U37A G80C, with 0.163.
Then G35C C61A, with 0.283; and G31A C86U, with 0.69; and C66G C86A, with 0.984.
As for C7A C18U, the self-cleavage came to 0.229.
For the variant G74U A87U, the self-cleavage was 0.506.
Then C33A U69A, with 0.325.
Consider G2C G17U, for which the self-cleavage is 0.0784.
The value for G17U C22A was 0.0831; that for U20G U46A was 0.192; that for G35A C62A was 0.526.
On to U37G G82A, for which the self-cleavage was determined as 0.158.
Then C14A C44A, with 0.246.
As to G50A A87C, the self-cleavage worked out at 1.07.
For the variant G2A C36U, the self-cleavage was 0.537.
Then U12C G55C, with 0.447.
Turning to G25A C58G, the self-cleavage was 0.111.
Regarding C15G U37C, the self-cleavage came to 0.875.
In the case of C3A C66G, the self-cleavage amounted to 0.508.
For C33A C66G, the self-cleavage amounted to 0.302.
Take G10C C44U: the self-cleavage was found to be 0.582.
On to G11U G39C, for which the self-cleavage was 0.
The value for A8C C21U was 0.0594; that for G73C C85U was 0.415.
For A42G A83G, the self-cleavage is 0.361.
The value for G39C G73U was 0.106; that for G35U U72A was 0.172.
With G25U U27G, the self-cleavage was 0.185.
The value for U23A G39C was 0.204; that for C33A G55A was 0.159; that for G53A C66G was 0.908.
G31C C44G: the self-cleavage was determined as 0.135.
G5A C14G: the self-cleavage is 0.0639.
G50C A77U: the self-cleavage was found to be 0.554.
Turning to G5U A56U, the self-cleavage is 0.431.
For G5C U12A, the self-cleavage is 0.0791.
Then G2C U46C, with 0.0475.
Turning to C33U G35C, the self-cleavage is 0.237.
With C14A U47G, the self-cleavage worked out at 0.519.
Regarding A51G C61G, the self-cleavage stood at 0.964.
The value for C62U A70U was 0.831; that for G40C G68C was 0.177.
Turning to G11A U27A, the self-cleavage worked out at 0.815.
In the case of C30U G31A, the self-cleavage stood at 0.168.
With G76C A87U, the self-cleavage was determined as 1.1.
In the case of G40U A83C, the self-cleavage came to 0.453.
As to A16U G25A, the self-cleavage is 0.0707.
As to U65G A70U, the self-cleavage was found to be 0.892.
Then G39U G59A, with 0.636; and C13G G52A, with 0.125.
As for G52U G74A, the self-cleavage was determined as 0.402.
For the variant G11A C57G, the self-cleavage is 0.432.
Regarding U23G G40U, the self-cleavage is 0.431.
As for A43U G73C, the self-cleavage is 0.43.
On to G52U A56G, for which the self-cleavage was 0.816.
G31C A43U: the self-cleavage was determined as 0.135.
Take G2U A8C: the self-cleavage turned out to be 0.
Then U9G G55A, with 0.962; and G80C C84A, with 0.144.
Take C13U G40C: the self-cleavage worked out at 0.0739.
Turning to A70C G76U, the self-cleavage was determined as 1.05.
For C21U G73A, the self-cleavage worked out at 0.0955.
With G67C G76A, the self-cleavage was found to be 1.11.
On to C57U A77G, for which the self-cleavage was found to be 0.941.
As for A56U C84A, the self-cleavage is 0.895.
Consider U20A C22G, for which the self-cleavage was 0.
U9C A70U: the self-cleavage came to 0.831.
Then C49U G68U, with 0.817; and A8C U37C, with 0.997.
As to G39U U60A, the self-cleavage worked out at 0.623.
On to U47G C63G, for which the self-cleavage turned out to be 0.415.
Then C30A G67C, with 0.318; and G53A A56C, with 0.787; and A8U G52C, with 0.779.
With G76A C86A, the self-cleavage was 0.855.
G31C U69C: the self-cleavage was determined as 0.534.
Turning to A43U C64G, the self-cleavage came to 0.506.
For C33G U60A, the self-cleavage was found to be 0.19.
As to G54C U72C, the self-cleavage is 0.69.
On to C49U G73C, for which the self-cleavage worked out at 0.409.
Turning to C33U G38A, the self-cleavage was 0.172.
For the variant G10U A87G, the self-cleavage stood at 0.704.
The value for C3G A56C was 0.681.
The value for C13G G39A was 0.0332; that for C32U C58G was 0.646.
As to U37G G67A, the self-cleavage was found to be 0.0692.
On to A8G G76A, for which the self-cleavage amounted to 1.09.
Turning to C15A A43U, the self-cleavage came out at 0.212.
With U20G A77G, the self-cleavage was 0.0692.
The value for C41U C64U was 0.892; that for G1C C36G was 0.0437; that for G50A C85G was 0.878.
The value for A8U A83G was 0.746.
Take C13G G59U: the self-cleavage was 0.0811.
G53C C61A: the self-cleavage came out at 1.04.
Regarding C58G U72G, the self-cleavage turned out to be 0.447.
For the variant U23G U37G, the self-cleavage is 0.217.
Then C49U A78U, with 0.437.
As for C32G G80A, the self-cleavage worked out at 0.0764.
As to C13U G52U, the self-cleavage is 0.394.
Then G52U C57A, with 0.903; and G5U G52C, with 0.475.
Consider C24G C49U, for which the self-cleavage is 0.115.
Take G17C G81C: the self-cleavage is 0.0898.
For G6U C48G, the self-cleavage was 0.374.
Turning to C22U G76A, the self-cleavage was determined as 0.643.
In the case of U27G A77U, the self-cleavage turned out to be 0.346.
On to G40A U72G, for which the self-cleavage is 0.437.
As for C18G A87G, the self-cleavage was determined as 0.12.
With G10A A87C, the self-cleavage was determined as 0.764.
As for C19A C32A, the self-cleavage amounted to 0.0604.
Then C21U G52U, with 0.182.
C22A A56C: the self-cleavage is 0.312.
For the variant C26U C49U, the self-cleavage was determined as 0.89.
With C14A C41A, the self-cleavage is 0.734.
As for G54A G81U, the self-cleavage was determined as 0.229.
Then C21A G59C, with 0.116; and G76A A77U, with 0.76.
C3U C86U: the self-cleavage worked out at 0.718.
Take G38C A78G: the self-cleavage stood at 0.0639.
As to C57G A77C, the self-cleavage was found to be 0.237.
The value for G29C U69A was 0.162; that for C13G C22G was 0.131; that for U20C C58G was 0.0923.
C32A C61G: the self-cleavage was 0.248.
As for C75A G81C, the self-cleavage came to 0.157.
In the case of G6A U37C, the self-cleavage was 0.853.
Take G34A A71U: the self-cleavage was found to be 0.185.
Consider U37G C85G, for which the self-cleavage came out at 0.201.
With U9G C84A, the self-cleavage was 0.554.
Turning to A45G U79G, the self-cleavage came out at 0.317.
On to G2A G29A, for which the self-cleavage worked out at 0.0288.
Regarding C3A C18G, the self-cleavage is 0.
Turning to G55A G82C, the self-cleavage amounted to 0.356.
Then G34C U47G, with 0.133.
The value for G55U A87G was 0.984.
As for G31C C63U, the self-cleavage stood at 0.369.
Take C32G C86U: the self-cleavage was 0.203.
As for C32U C49G, the self-cleavage was determined as 0.743.

Source of the values: the RNAGym collection of RNA variant scans (doi:10.7554/elife.80360).
